Experimental data reported in US5804688A, “Compounds and compositions for delivering active agents” (Emisphere Technologies, Inc., priority 1997, dated 1998).
Like-named read-outs stand apart in the source and are kept apart here.

How the values were obtained:
[1] = rat, in vivo, 50 mg/kg
Protocol: (§1) Rats were administered, orally and by intracolonic instillation, dosing solutions of 1 mg/kg of interferon and no carrier.

[2] = In vivo interferon delivery in rats (serum interferon, ELISA); conditions: 1 mg/kg interferon, no carrier
Protocol: as §1

O=C(O)CCCc1ccc(NC(=O)COc2ccccc2)cc1 [Compound 9]
Mean peak serum interferon concentration [1]: 2611±695

interferon
Mean peak serum interferon concentration ([2]; intracolonic (IC)): 79±100 | Mean peak serum interferon concentration ([2]; oral (PO)): 1951±1857
